Results as given in article PMC10397247.

Assays:
[1] = target: T1, 4H492-bN; experiment: two-hybrid library CCNG1;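 also: natural log of median RNA to DNA barcode read ratio; higher means stronger binding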
T1 chain: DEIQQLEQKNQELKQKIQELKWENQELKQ

[2] = target: T2, 4H741-bN; experiment: two-hybrid library CCNG1;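 also: natural log of median RNA to DNA barcode read ratio; higher means stronger binding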
T2 chain: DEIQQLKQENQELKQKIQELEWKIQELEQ

[3] = target: T3, 4H796-bA; experiment: two-hybrid library CCNG1;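 also: natural log of median RNA to DNA barcode read ratio; higher means stronger binding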
T3 chain: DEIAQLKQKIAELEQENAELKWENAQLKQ

[4] = target: T4, P1A-bS; experiment: two-hybrid library CCNG1;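 also: natural log of median RNA to DNA barcode read ratio; higher means stronger binding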
T4 chain: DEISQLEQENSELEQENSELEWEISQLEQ

[5] = target: T5, 4H2223-bA; experiment: two-hybrid library CCNG1;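 also: natural log of median RNA to DNA barcode read ratio; higher means stronger binding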
T5 chain: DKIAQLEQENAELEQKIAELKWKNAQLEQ

[6] = target: T6, 4H2438-bA; experiment: two-hybrid library CCNG1;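 also: natural log of median RNA to DNA barcode read ratio; higher means stronger binding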
T6 chain: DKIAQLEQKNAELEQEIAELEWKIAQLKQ

[7] = target: T7, 4H2473-bA; experiment: two-hybrid library CCNG1
T7 chain: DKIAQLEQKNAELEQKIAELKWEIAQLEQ

[8] = target: T8, 4H2503-bA; experiment: two-hybrid library CCNG1
T8 chain: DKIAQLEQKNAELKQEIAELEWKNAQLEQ

[9] = target: T9, 4H2588-bA; experiment: two-hybrid library CCNG1
T9 chain: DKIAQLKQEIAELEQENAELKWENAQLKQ

[10] = target: T10, 4H2692-bA; experiment: two-hybrid library CCNG1
T10 chain: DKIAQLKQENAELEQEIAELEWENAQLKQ

[11] = target: T11, 4H2717-bA; experiment: two-hybrid library CCNG1
T11 chain: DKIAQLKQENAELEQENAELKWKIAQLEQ

[12] = target: T12, 4H2839-bA; experiment: two-hybrid library CCNG1
T12 chain: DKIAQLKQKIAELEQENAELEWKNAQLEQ

[13] = target: T13, 4H2915-bA; experiment: two-hybrid library CCNG1
T13 chain: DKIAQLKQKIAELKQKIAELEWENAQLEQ

[14] = target: T14, 4H3057-bA; experiment: two-hybrid library CCNG1
T14 chain: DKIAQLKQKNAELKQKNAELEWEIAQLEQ

[15] = target: T15, 4H319-bA; experiment: two-hybrid library CCNG1
T15 chain: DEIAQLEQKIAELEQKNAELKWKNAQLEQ

[16] = target: T16, 4H3277-bA; experiment: two-hybrid library CCNG1
T16 chain: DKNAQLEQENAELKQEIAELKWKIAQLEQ

[17] = target: T17, 4H348-bA; experiment: two-hybrid library CCNG1
T17 chain: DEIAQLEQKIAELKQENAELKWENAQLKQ

[18] = target: T18, 4H40-bA; experiment: two-hybrid library CCNG1
T18 chain: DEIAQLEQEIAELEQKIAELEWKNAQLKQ

[19] = target: T19, 4H477-bA; experiment: two-hybrid library CCNG1
T19 chain: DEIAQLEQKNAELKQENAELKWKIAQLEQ

[20] = target: T20, 4H492-bA; experiment: two-hybrid library CCNG1
T20 chain: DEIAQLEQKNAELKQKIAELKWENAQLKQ

[21] = target: T21, 4H741-bA; experiment: two-hybrid library CCNG1
T21 chain: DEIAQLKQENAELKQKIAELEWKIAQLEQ

[22] = target: T22, 4H170-bH; experiment: two-hybrid library CCNG1
T22 chain: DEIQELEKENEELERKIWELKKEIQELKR

[23] = target: T23, 4H1831-bH; experiment: two-hybrid library CCNG1
T23 chain: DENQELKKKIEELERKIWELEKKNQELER

[24] = target: T24, 4H2586-bH; experiment: two-hybrid library CCNG1
T24 chain: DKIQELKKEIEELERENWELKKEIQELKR

[25] = target: T25, 4H2627-bH; experiment: two-hybrid library CCNG1
T25 chain: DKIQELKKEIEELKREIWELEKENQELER

[26] = target: T26, 4H2673-bH; experiment: two-hybrid library CCNG1
T26 chain: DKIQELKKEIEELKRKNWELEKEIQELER

[27] = target: T27, 4H2702-bH; experiment: two-hybrid library CCNG1
T27 chain: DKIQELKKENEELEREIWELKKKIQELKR

[28] = target: T28, 4H3010-bH; experiment: two-hybrid library CCNG1
T28 chain: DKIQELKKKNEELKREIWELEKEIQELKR

[29] = target: T29, 4H3112-bH; experiment: two-hybrid library CCNG1
T29 chain: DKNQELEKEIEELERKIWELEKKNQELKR

[30] = target: T30, 4H3427-bH; experiment: two-hybrid library CCNG1
T30 chain: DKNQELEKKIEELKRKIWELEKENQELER

[31] = target: T31, 4H346-bH; experiment: two-hybrid library CCNG1
T31 chain: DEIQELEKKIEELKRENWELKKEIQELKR

[32] = target: T32, 4H3926-bH; experiment: two-hybrid library CCNG1
T32 chain: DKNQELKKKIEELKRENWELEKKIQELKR

[33] = target: T33, 4H4073-bH; experiment: two-hybrid library CCNG1
T33 chain: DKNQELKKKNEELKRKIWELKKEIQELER

[34] = target: T34, 4H457-bH; experiment: two-hybrid library CCNG1
T34 chain: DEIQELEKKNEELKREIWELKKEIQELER

[35] = target: T35, 4H575-bH; experiment: two-hybrid library CCNG1
T35 chain: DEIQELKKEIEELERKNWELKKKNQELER

[36] = target: T36, 4H683-bH; experiment: two-hybrid library CCNG1
T36 chain: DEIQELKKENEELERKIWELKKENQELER

[37] = target: T37, 4H754-bH; experiment: two-hybrid library CCNG1
T37 chain: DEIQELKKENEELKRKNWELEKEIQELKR

[38] = target: T38, 4H780-bH; experiment: two-hybrid library CCNG1
T38 chain: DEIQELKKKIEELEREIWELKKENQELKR

[39] = target: T39, 4H797-bH; experiment: two-hybrid library CCNG1
T39 chain: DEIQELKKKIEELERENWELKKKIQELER

[40] = target: T40, 4H855-bH; experiment: two-hybrid library CCNG1
T40 chain: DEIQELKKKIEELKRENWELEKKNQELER

[41] = target: T41, 4H918-bH; experiment: two-hybrid library CCNG1
T41 chain: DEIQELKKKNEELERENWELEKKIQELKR

[42] = target: T42, 4H953-bH; experiment: two-hybrid library CCNG1
T42 chain: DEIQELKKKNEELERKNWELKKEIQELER

[43] = target: T43, 4H968-bH; experiment: two-hybrid library CCNG1
T43 chain: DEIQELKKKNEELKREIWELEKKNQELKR

[44] = target: T44, 4H1802-AA; experiment: two-hybrid library CCmax
T44 chain: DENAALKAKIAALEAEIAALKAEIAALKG

[45] = target: T45, 4H2600-AA; experiment: two-hybrid library CCmax; details: mean of both orientations
T45 chain: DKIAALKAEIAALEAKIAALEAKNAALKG

[46] = target: T46, 4H2721-AA; experiment: two-hybrid library CCmax; details: mean of both orientations
T46 chain: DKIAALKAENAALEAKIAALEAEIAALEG

[47] = target: T47, 4H2750-AA; experiment: two-hybrid library CCmax; details: mean of both orientations
T47 chain: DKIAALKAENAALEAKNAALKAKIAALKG

[48] = target: T48, 4H2898-AA; experiment: two-hybrid library CCmax; details: mean of both orientations
T48 chain: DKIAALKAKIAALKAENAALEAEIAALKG

[49] = target: T49, 4H3020-AA; experiment: two-hybrid library CCmax; details: mean of both orientations
T49 chain: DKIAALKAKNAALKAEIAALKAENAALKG

[50] = target: T50, 4H3365-AA; experiment: two-hybrid library CCmax; details: mean of both orientations
T50 chain: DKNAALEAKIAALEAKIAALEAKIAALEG

[51] = target: T51, 4H355-AA; experiment: two-hybrid library CCmax; details: mean of both orientations
T51 chain: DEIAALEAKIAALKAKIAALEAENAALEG

[52] = target: T52, 4H3651-AA; experiment: two-hybrid library CCmax; details: mean of both orientations
T52 chain: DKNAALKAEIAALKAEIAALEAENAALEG

[53] = target: T53, 4H3705-AA; experiment: two-hybrid library CCmax; details: mean of both orientations
T53 chain: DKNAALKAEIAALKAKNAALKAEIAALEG

[54] = target: T54, 4H3782-AA; experiment: two-hybrid library CCmax; details: mean of both orientations
T54 chain: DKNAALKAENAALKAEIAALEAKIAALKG

[55] = target: T55, 4H465-AA; experiment: two-hybrid library CCmax; details: mean of both orientations
T55 chain: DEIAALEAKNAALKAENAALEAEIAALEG

[56] = target: T56, 4H486-AA; experiment: two-hybrid library CCmax; details: mean of both orientations
T56 chain: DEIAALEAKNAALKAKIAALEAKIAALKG

[57] = target: T57, 4H535-AA; experiment: two-hybrid library CCmax; details: mean of both orientations
T57 chain: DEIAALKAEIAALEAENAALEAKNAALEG

[58] = target: T58, 4H58-AA; experiment: two-hybrid library CCmax; details: mean of both orientations
T58 chain: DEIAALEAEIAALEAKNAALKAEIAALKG

[59] = target: T59, 4H656-AA; experiment: two-hybrid library CCmax
T59 chain: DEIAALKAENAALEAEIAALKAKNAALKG

[60] = target: T60, 4H895-AA; experiment: two-hybrid library CCmax; details: mean of both orientations
T60 chain: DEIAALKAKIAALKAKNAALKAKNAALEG

[61] = target: T61, 4H_APH; experiment: two-hybrid library CCmax; details: mean of both orientations
T61 chain: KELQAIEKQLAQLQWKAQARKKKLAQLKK

[62] = target: T62, 4H_BCR; experiment: two-hybrid library CCmax; details: mean of both orientations
T62 chain: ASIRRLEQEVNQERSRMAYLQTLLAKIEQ

[63] = target: 4H_GCN4; experiment: two-hybrid library CCmax
[64] = target: GCN2_T; experiment: two-hybrid library CCmax

Chain of 4H_GCN4 (chain, as listed by the source): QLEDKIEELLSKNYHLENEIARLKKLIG

B1: 4H492-bN (peptide)
chain: DEIQQLEQKNQELKQKIQELKWENQELKQ
interaction score [1]: -0.118
interaction score [2]: -0.326
interaction score [3]: 0.0979
interaction score [4]: -1.07

B2: 4H2223-bA (peptide)
chain: DKIAQLEQENAELEQKIAELKWKNAQLEQ
interaction score [5]: 0.291
interaction score [6]: 0.457
interaction score [7]: -0.247
interaction score [8]: 1.47
interaction score [9]: -0.336
interaction score [10]: -0.196
interaction score [11]: -0.279
interaction score [12]: -0.368
interaction score [13]: 0.32
interaction score [14]: 0.223
interaction score [15]: -0.61
interaction score [16]: -0.571
interaction score [17]: -1.22
interaction score [18]: -1.46
interaction score [19]: -1.47
interaction score [20]: 1.49
interaction score [21]: 0.169

B3: 4H170-bH (peptide)
chain: DEIQELEKENEELERKIWELKKEIQELKR
interaction score [22]: 0.761
interaction score [23]: -0.0127
interaction score [24]: -1.02
interaction score [25]: 0.774
interaction score [26]: -0.0221
interaction score [27]: 1.84
interaction score [28]: 2.38
interaction score [29]: 0.343
interaction score [30]: 0.596
interaction score [31]: -0.205
interaction score [32]: 0.549
interaction score [33]: 1.14
interaction score [34]: 1.82
interaction score [35]: -1.59
interaction score [36]: -0.173
interaction score [37]: 1.02
interaction score [38]: -0.492
interaction score [39]: 0.264
interaction score [40]: -0.762
interaction score [41]: 0.183
interaction score [42]: 0.0231
interaction score [43]: 1.47

B4: 4H1802-AA (peptide)
chain: DENAALKAKIAALEAEIAALKAEIAALKG
interaction score [44]: 1.63
interaction score [45]: -0.95
interaction score [46]: -1.29
interaction score [47]: -1.63
interaction score [48]: -1.81
interaction score [49]: -1.81
interaction score [50]: -1.3
interaction score [51]: -0.981
interaction score [52]: -1.48
interaction score [53]: -1.42
interaction score [54]: -1.38
interaction score [55]: -1.48
interaction score [56]: -1.28
interaction score [57]: -1.73
interaction score [58]: -1.15
interaction score [59]: -2.89
interaction score [60]: -1.85
interaction score [61]: -1.86
interaction score [62]: -1.68
interaction score [63]: -1.26
interaction score [64]: -1.36
